This is an account of results in PMC3919625.

One may read the stoichiometry N as the number of molecules, sites or subunits per partner or assembly.

For the assay, the target named is 2G12 IgG monomer (human). Kind of assay: SEC. For orientation: SEC sorts molecules by how far they enter the pores of the column.

Turning to 2G12 IgG monomer (antibody), the stoichiometry N stood at 3.
